Measurements reported in patent publication US20230032737A1 (University of Pennsylvania, published 2023).

Target: T1, purified human factor D (from human plasma) (human, UniProt P00746 26-253)
T1 construct: mature; Also used here for the native factor D of normal human serum in the functional assays; also called human fD; fD
Assay: SPR (Biacore-2000), purified human factor D amine-coupled to CM4 chip
Experimental: FIG. 8 depicts the results of antigen binding affinity measurements for 1F10-5 mAb using Biacore. Purified human factor D was coupled onto CM4 chip using the amine coupling method. Biacore analysis was performed on a Biacore-2000 instrument. The chip was regenerated between each binding using 50 mM NaOH.

T1 sequence (P00746 26-253): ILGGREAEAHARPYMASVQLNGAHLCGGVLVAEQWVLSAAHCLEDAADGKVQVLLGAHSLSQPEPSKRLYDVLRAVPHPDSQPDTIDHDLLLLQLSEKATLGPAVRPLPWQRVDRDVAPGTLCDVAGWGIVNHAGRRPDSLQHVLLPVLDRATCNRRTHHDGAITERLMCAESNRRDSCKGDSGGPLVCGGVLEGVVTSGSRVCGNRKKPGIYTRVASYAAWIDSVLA

B1: mAb 1F10-5 (murine anti-human factor D monoclonal antibody) (antibody, V domains shown)
VH: QIQLVQSGPELKKPGETVKISCKASGYTFTNFEMNWVKQAPGQGLNWMGCINTYTGDPIYADDFRGRFAFSLETSASTAYLQINNLKNEDMATYFCSREGGGDYWGQGTTLTVSS
VL: SIVMTQTPKFLLVSAGDRVTITCKASQSVTNDVAWYQQKPGQSPRLLIYHASNRYTGVPERFTGSGYGTDFTFTINTVQAEDLAVYFCQQDYSSPRTFGGGTKLEIKR
notes: Mouse hybridoma antibody; also called 1F10-mAb; IF10-5
  Kd: 0.15 nM
